# Measured values from PMC11480844.
# B1: H2-Kb / B2 (parent)
# chain 1: GEQVEQRPPHLSVREGDSAVIICTYTDPNSYYFFWYKQEPGAGLQLLMKVFSSTEINEGQGFTVLLNKKDKQLSLNLTAAHPGDSAVYFCAVSQMSNYNVLYFGSGTKLTVEP
# chain 2: EAAVTQSPRNKVAVTGGKVTLSCNQTNNHNNMYWYRQDTGHGLRLIHYSYGAGSTEKGDIPDGYKASRPSQENFSLILELATPSQTSVYFCASGTGGSGQLYFGEGSKLTVL
# chain 3: not shown
# chain 4: IQKTPQIQVYSRHPPENGKPNILNCYVTQFHPPHIEIQMLKNGKKIPKVEMSDMSFSKDWSFYILAHTEFTPTETDTYACRVKHDSMAEPKTVYWDRDM
# chain 5: SIINFEKL
# B2: H2-Kb / B10 (parent)
# chain 1: GQQVQQSPASLVLQEGENAELQCNFSSTATRLQWFYQRPGGSLVSLLSNPSGTKHTGRLTSTTVTKERRGSLHISSSQITDSGTYLCAPGGSNAKLTFGKGTKLSVKS
# chain 2: DPKIIQKPKYLVAVTGSEKILICEQYLGHNAMYWYRQSAKKPLEFMFSYSYQKLMDNQTASSRFQPQSSKKNHLDLQITALKPDDSATYFCASSLRGGNNQAPLFGEGTRLSVL
# chain 3: not shown
# chain 4: B1 chain 4
# chain 5: SIINFEKL
# B3: H2-Kb / B14 (parent)
# chain 1: GEQVEQRPPHLSVREGDSAVIICTYTDPNSYYFFWYKQEPGAGLQLLMKVFSSTEINEGQGFTVLLNKKDKQLSLNLTAAHPGDSAVYFCAVSARGNMGYKLTFGTGTSLLVDP
# chain 2: GGIITQTPKFLIGQEGQKLTLKCQQNFNHDTMYWYRQDSGKGLRLIYYSITENDLQKGDLSEGYDASREKKSSFSLTVTSAQKNEMAVFLCASSMGQGASDYTFGSGTRLLVI
# chain 3: not shown
# chain 4: B1 chain 4
# chain 5: SIINFEKL
# Variants of: B1
# Experiment: % of reporter cells activated (NFAT-GFP), raw
# Details: with B2; scale: % of reporter cells activated
# Further: test concentration or dose not given here.
row,Variant,ratio to parent
1,chain 5 E6N,0.535
2,chain 5 E6A,0.557
3,chain 5 E6I,0.67
4,chain 5 E6D,0.6
5,chain 5 E6L,0.53
6,chain 5 E6M,0.946
7,chain 5 E6G,1.06
8,chain 5 E6R,0.573
9,chain 5 E6Y,0.697
10,chain 5 E6P,0.741
11,chain 5 E6T,0.746
12,chain 5 E6C,0.811
13,chain 5 E6H,0.497
14,chain 5 E6S,0.751
15,chain 5 E6V,0.422
16,chain 5 E6K,1.8
17,chain 5 E6Q,0.724
18,chain 5 E6W,0.6
19,chain 5 E6F,0.584
20,chain 5 F5V,0.346
21,chain 5 F5E,0.573

row,Variant,ratio to parent
1,chain 5 F5G,0.438
2,chain 5 F5Q,1.75
3,chain 5 F5A,1.27
4,chain 5 F5W,0.519
5,chain 5 F5H,12.1
6,chain 5 F5C,3.54
7,chain 5 F5P,0.703
8,chain 5 F5D,1.06
9,chain 5 F5T,0.632
10,chain 5 F5N,1.95
11,chain 5 F5K,0.741
12,chain 5 F5I,1.82
13,chain 5 F5R,0.476
14,chain 5 F5Y,7.49
15,chain 5 F5L,3.33
16,chain 5 F5M,1.38
17,chain 5 F5S,0.73
18,chain 5 K7D,3.15
19,chain 5 K7C,2.46
20,chain 5 K7A,4.46
21,chain 5 K7F,4.64

row,Variant,ratio to parent
1,chain 5 K7E,1.49
2,chain 5 I3W,0.578
3,chain 5 I3M,0.659
4,chain 5 I3F,0.324
5,chain 5 I3L,0.724
6,chain 5 I3N,0.389
7,chain 5 I3P,0.692
8,chain 5 I3R,0.335
9,chain 5 I3K,0.427
10,chain 5 I3C,0.795
11,chain 5 I3S,0.4
12,chain 5 I3T,0.4
13,chain 5 I3Q,0.524
14,chain 5 I3H,0.676
15,chain 5 I3D,0.481
16,chain 5 I3V,0.449
17,chain 5 I3A,0.741
18,chain 5 I3G,0.568
19,chain 5 I3Y,0.476
20,chain 5 I3E,0.432
21,chain 5 I2P,0.892

row,Variant,ratio to parent
1,chain 5 I2N,0.589
2,chain 5 I2Q,0.573
3,chain 5 I2D,1
4,chain 5 I2W,0.768
5,chain 5 I2S,0.714
6,chain 5 I2G,0.876
7,chain 5 I2R,1.36
8,chain 5 I2V,1.91
9,chain 5 I2K,1.18
10,chain 5 I2Y,0.87
11,chain 5 I2C,1.2
12,chain 5 I2H,0.93
13,chain 5 I2F,2.06
14,chain 5 I2M,2.66
15,chain 5 I2E,0.654
16,chain 5 I2L,4.69
17,chain 5 I2A,1.58
18,chain 5 I2T,1.68

# Second part, the variant after the results:
row,ratio to parent,Variant
1,0.503,chain 5 N4L
2,0.432,chain 5 N4A
3,0.557,chain 5 N4I
4,0.162,chain 5 N4C
5,0.362,chain 5 N4K
6,0.281,chain 5 N4V
7,0.503,chain 5 N4P
8,0.557,chain 5 N4F
9,0.535,chain 5 N4M
10,0.449,chain 5 N4W
11,0.373,chain 5 N4T
12,0.335,chain 5 N4G
13,0.481,chain 5 N4Y
14,0.541,chain 5 N4D
15,0.422,chain 5 N4S
16,0.416,chain 5 N4E
17,0.584,chain 5 N4H
18,0.259,chain 5 N4Q
19,0.324,chain 5 N4R
20,12.4,chain 5 K7V
21,2.46,chain 5 K7Y
22,7.51,chain 5 K7W
23,1.97,chain 5 K7R
24,2.53,chain 5 K7M

row,ratio to parent,Variant
1,1.96,chain 5 K7Q
2,7.31,chain 5 K7G
3,1.99,chain 5 K7T
4,3.71,chain 5 K7S
5,2.05,chain 5 K7L
6,1.84,chain 5 K7N
7,4.08,chain 5 K7H
8,3.7,chain 5 K7P
9,1.95,chain 5 K7I
10,2.9,chain 5 S1D
11,8.98,chain 5 S1W
12,6.59,chain 5 S1P
13,0.773,chain 5 S1C
14,4.72,chain 5 S1G
15,5.53,chain 5 S1R
16,10.3,chain 5 S1I
17,0.768,chain 5 S1E
18,7.3,chain 5 S1L
19,0.465,chain 5 S1N
20,5.85,chain 5 S1M
21,1.02,chain 5 S1T
22,6.51,chain 5 S1Y
23,1.74,chain 5 S1H
24,4.16,chain 5 S1F

row,ratio to parent,Variant
1,2.57,chain 5 S1K
2,1.77,chain 5 S1Q
3,8.24,chain 5 S1V
4,3.1,chain 5 S1A
5,1.17,chain 5 L8K
6,2.09,chain 5 L8W
7,8.42,chain 5 L8F
8,0.914,chain 5 L8D
9,8.62,chain 5 L8A
10,2.06,chain 5 L8C
11,1.03,chain 5 L8Y
12,0.773,chain 5 L8R
13,1.29,chain 5 L8T
14,0.211,chain 5 L8V
15,3.42,chain 5 L8M
16,0.551,chain 5 L8E
17,0.897,chain 5 L8N
18,0.849,chain 5 L8G
19,2.52,chain 5 L8Q
20,2.32,chain 5 L8H
21,1.08,chain 5 L8S
22,0.708,chain 5 L8I
23,3.65,chain 5 L8P

# Variants of: B2
# Experiment: % of reporter cells activated (NFAT-GFP), raw
# Details: with B10; scale: % of reporter cells activated
row,Variant,ratio to parent
1,chain 5 L8G,0.683
2,chain 5 L8N,0.915
3,chain 5 L8M,0.831
4,chain 5 L8E,1.53
5,chain 5 L8H,0.966
6,chain 5 L8F,1.03
7,chain 5 L8P,1.39
8,chain 5 L8A,1.07
9,chain 5 L8K,1.12
10,chain 5 L8C,1.27
11,chain 5 L8T,0.915
12,chain 5 L8I,0.769
13,chain 5 L8V,0.51
14,chain 5 L8W,0.814
15,chain 5 L8Y,0.356
16,chain 5 L8Q,1.11
17,chain 5 L8D,0.849
18,chain 5 L8S,0.903
19,chain 5 L8R,1.34
20,chain 5 S1H,1.08
21,chain 5 S1L,1.32

row,Variant,ratio to parent
1,chain 5 S1A,0.498
2,chain 5 S1Q,0.831
3,chain 5 S1V,1.15
4,chain 5 S1N,1.71
5,chain 5 S1M,1.64
6,chain 5 S1I,1.1
7,chain 5 S1R,0.627
8,chain 5 S1F,0.678
9,chain 5 S1E,0.864
10,chain 5 S1W,1.07
11,chain 5 S1G,0.831
12,chain 5 S1Y,0.966
13,chain 5 S1K,1.53
14,chain 5 S1T,1.1
15,chain 5 S1P,0.849
16,chain 5 S1D,0.924
17,chain 5 S1C,1.07
18,chain 5 N4S,1.01
19,chain 5 N4D,2.53
20,chain 5 N4K,1.32
21,chain 5 N4V,1.85

row,Variant,ratio to parent
1,chain 5 N4T,1.73
2,chain 5 N4Q,1.19
3,chain 5 N4R,1.37
4,chain 5 N4F,1.51
5,chain 5 N4H,1.88
6,chain 5 N4L,1.05
7,chain 5 N4M,0.932
8,chain 5 N4G,1.28
9,chain 5 N4W,1.66
10,chain 5 N4C,2.85
11,chain 5 N4P,1.81
12,chain 5 N4A,1.86
13,chain 5 N4E,1.19
14,chain 5 N4Y,2.14
15,chain 5 N4I,1.8
16,chain 5 K7W,1
17,chain 5 K7Y,0.995
18,chain 5 K7V,1.37
19,chain 5 K7T,1.22
20,chain 5 K7S,1.39

# Variants of: B3
# Experiment: % of reporter cells activated (NFAT-GFP), raw
# Details: with B14; scale: % of reporter cells activated
row,Variant,ratio to parent
1,chain 5 K7C,4.53
2,chain 5 K7E,0.622
3,chain 5 K7D,0.791
4,chain 5 K7A,0.907
5,chain 5 I3L,1.33
6,chain 5 I3Y,1.28
7,chain 5 I3T,1.47
8,chain 5 I3V,1.6
9,chain 5 I3H,1.78
10,chain 5 I3F,1
11,chain 5 I3K,1.34
12,chain 5 I3S,1.6
13,chain 5 I3R,0.858
14,chain 5 I3E,1.28
15,chain 5 I3M,0.84
16,chain 5 I3P,2
17,chain 5 I3A,1.33
18,chain 5 I3G,1.38
19,chain 5 I3C,1.96
20,chain 5 I3Q,1.69
21,chain 5 I3D,1.46
22,chain 5 I3W,1.11
23,chain 5 I3N,0.978
24,chain 5 E6W,1.2
25,chain 5 E6N,1.07
26,chain 5 E6T,1.41
27,chain 5 E6D,0.618

row,Variant,ratio to parent
1,chain 5 E6P,0.867
2,chain 5 E6Y,0.853
3,chain 5 E6G,1.08
4,chain 5 E6A,0.418
5,chain 5 E6R,0.373
6,chain 5 E6S,0.751
7,chain 5 E6I,0.729
8,chain 5 E6H,0.853
9,chain 5 E6Q,0.876
10,chain 5 E6C,1.16
11,chain 5 E6V,1.69
12,chain 5 E6M,0.822
13,chain 5 E6L,0.622
14,chain 5 E6F,1.47
15,chain 5 E6K,0.707
16,chain 5 F5K,0.636
17,chain 5 F5H,0.96
18,chain 5 F5R,1.33
19,chain 5 F5T,0.609
20,chain 5 F5D,1.32
21,chain 5 F5I,0.831
22,chain 5 F5P,0.791
23,chain 5 F5N,1.1
24,chain 5 F5M,0.893
25,chain 5 F5Q,0.582
26,chain 5 F5V,1.17
27,chain 5 F5G,1.07

row,Variant,ratio to parent
1,chain 5 F5E,1.08
2,chain 5 F5C,1.96
3,chain 5 F5L,1.11
4,chain 5 F5S,1.56
5,chain 5 F5A,1.33
6,chain 5 F5Y,0.578
7,chain 5 F5W,0.724
8,chain 5 I2G,0.907
9,chain 5 I2N,1
10,chain 5 I2Y,0.88
11,chain 5 I2D,1.47
12,chain 5 I2V,0.52
13,chain 5 I2W,0.933
14,chain 5 I2H,0.667
15,chain 5 I2R,1.87
16,chain 5 I2K,1.04
17,chain 5 I2A,0.778
18,chain 5 I2E,0.964
19,chain 5 I2M,1.4
20,chain 5 I2F,0.849
21,chain 5 I2C,0.933
22,chain 5 I2T,1.16
23,chain 5 I2P,2.36
24,chain 5 I2S,1.08
25,chain 5 I2Q,1.07
26,chain 5 I2L,1.73

# Other lines, results leading:
row,ratio to parent,Variant
1,1.42,chain 5 K7F
2,0.796,chain 5 K7H
3,1.26,chain 5 K7W
4,0.787,chain 5 K7M
5,1.73,chain 5 K7T
6,1.09,chain 5 K7S
7,1.23,chain 5 K7Q
8,0.96,chain 5 K7I
9,0.489,chain 5 K7G
10,0.707,chain 5 K7N
11,1.69,chain 5 K7Y
12,1.64,chain 5 K7P
13,1.56,chain 5 K7L
14,1.11,chain 5 K7V
15,0.667,chain 5 K7R
16,1.16,chain 5 L8N
17,1.38,chain 5 L8T
18,2.84,chain 5 L8H
19,1.24,chain 5 L8D
20,1.38,chain 5 L8G

row,ratio to parent,Variant
1,0.44,chain 5 L8F
2,1.41,chain 5 L8C
3,1.24,chain 5 L8K
4,1.24,chain 5 L8Q
5,0.716,chain 5 L8S
6,1.33,chain 5 L8P
7,0,chain 5 L8V
8,1.11,chain 5 L8W
9,0.516,chain 5 L8E
10,0.773,chain 5 L8M
11,1.07,chain 5 L8Y
12,0.978,chain 5 L8R
13,1.51,chain 5 L8I
14,0.609,chain 5 L8A
15,1.32,chain 5 N4A
16,1.23,chain 5 N4D
17,0.644,chain 5 N4G
18,1.33,chain 5 N4E
19,0.916,chain 5 N4C
20,1.51,chain 5 N4F
